In patent publication US20240116985A1 (published 2024):
Where two headings read alike, the source gives them in different places. Starred links: 1 amine or outer side, 2 acyl side, 3 side chain; linkers in the order of their positions; H or OH if unused. Positions of bridges follow the written chain, without caps; N, C: chain ends. Non-standard residues stand in square brackets, D forms with d. Primed or numbered codes have the meaning given here. *: point of attachment. PyrS2(3) = (S)-3-amino-1-((pent-4-en-1-yloxy)carbonyl)pyrrolidine-3-carboxylic acid, stapling residue, C=CCCCOC(=O)N1CC[C@@](N[*:1])(C(=O)[*:2])C1; PyrS2″ = (S)-3-amino-1-((pent-4-en-1-yloxy)carbonyl)pyrrolidine-3-carboxylic acid (stapling residue), C=CCCCOC(=O)N1CC[C@@](N[*:1])(C(=O)[*:2])C1; PyrS3″ = (S)-3-amino-1-((hex-5-en-1-yloxy)carbonyl)pyrrolidine-3-carboxylic acid (stapling residue), C=CCCCCOC(=O)N1CC[C@@](N[*:1])(C(=O)[*:2])C1; B5(4) = 2,2-bis(4-pentenyl)glycine = 2-amino-2-(pent-4-en-1-yl)hept-6-enoic acid (stitching residue), C=CCCCC(CCCC=C)(N[*:1])C(=O)[*:2]; B5(5) = 2,2-bis(4-pentenyl)glycine, 2-amino-2-(pent-4-en-1-yl)hept-6-enoic acid (stitching residue), C=CCCCC(CCCC=C)(N[*:1])C(=O)[*:2]; B5(21) = 2-amino-2-(pent-4-en-1-yl)hept-6-enoic acid, bis(4-pentenyl)glycine (stitching residue), C=CCCCC(CCCC=C)(N[*:1])C(=O)[*:2]; PyrS2 = (S)-3-amino-1-((pent-4-en-1-yloxy)carbonyl)pyrrolidine-3-carboxylic acid, C=CCCCOC(=O)N1CC[C@@](N[*:1])(C(=O)[*:2])C1; B5(13) = 2-amino-2-(pent-4-en-1-yl)hept-6-enoic acid (two alkene chains), C=CCCCC(CCCC=C)(N[*:1])C(=O)[*:2]; B5″ = 2,2-bis(4-pentenyl)glycine, stitching residue, C=CCCCC(CCCC=C)(N[*:1])C(=O)[*:2]; mPEG2 = N-terminal 3-(2-methoxyethoxy)propanoic acid, COCCOCCC(=O)*; Phe(2-Cl) = N[C@@H](Cc1ccccc1Cl)C(=O)O; Phe(2-OMe) = COc1ccccc1C[C@H](N)C(=O)O; Phe(2-F) = N[C@@H](Cc1ccccc1F)C(=O)O; Bta = N[C@@H](Cc1csc2ccccc12)C(=O)O; αAllylPro = C=CC[C@@]1(C(=O)O)CCCN1; tBuAla = CC(C)(C)C[C@H](N)C(=O)O; 2Thi = N[C@@H](Cc1cccs1)C(=O)O; 3Thi = N[C@@H](Cc1ccsc1)C(=O)O; S8 = C=CCCCCCC[C@](C)(N)C(=O)O; Thr(ol) = C[C@@H](O)[C@H](N)CO

T1: full-length beta-Catenin (Uniprot ID P35222) (Homo sapiens (Human), UniProt P35222 1-781)
T1 construct: The assay protocol says full-length beta-Catenin (Uniprot ID P35222); tags are not described; also called bCat; B-Catenin
T1 sequence: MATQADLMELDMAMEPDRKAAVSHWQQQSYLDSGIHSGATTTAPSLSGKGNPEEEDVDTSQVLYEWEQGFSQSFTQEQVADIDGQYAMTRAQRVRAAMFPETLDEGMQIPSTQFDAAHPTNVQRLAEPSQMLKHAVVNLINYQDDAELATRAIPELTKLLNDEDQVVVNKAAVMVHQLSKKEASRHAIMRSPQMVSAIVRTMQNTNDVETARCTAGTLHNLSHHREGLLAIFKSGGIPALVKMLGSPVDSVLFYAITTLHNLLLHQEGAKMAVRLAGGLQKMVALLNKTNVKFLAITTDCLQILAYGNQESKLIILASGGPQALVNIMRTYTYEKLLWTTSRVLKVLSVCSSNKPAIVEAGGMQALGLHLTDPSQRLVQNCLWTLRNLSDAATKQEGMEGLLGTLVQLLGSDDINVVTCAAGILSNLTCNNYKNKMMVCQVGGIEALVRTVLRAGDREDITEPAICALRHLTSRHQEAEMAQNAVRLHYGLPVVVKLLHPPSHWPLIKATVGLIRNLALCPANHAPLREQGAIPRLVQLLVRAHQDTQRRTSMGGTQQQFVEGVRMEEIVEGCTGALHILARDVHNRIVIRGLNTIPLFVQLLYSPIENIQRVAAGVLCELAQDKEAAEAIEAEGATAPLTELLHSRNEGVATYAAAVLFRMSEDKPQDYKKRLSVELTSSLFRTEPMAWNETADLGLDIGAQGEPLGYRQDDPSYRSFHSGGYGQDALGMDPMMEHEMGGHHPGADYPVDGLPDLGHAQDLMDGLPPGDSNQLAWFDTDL

T2: B-cat-Halo (UniProt P35222 1-781)
T2 sequence (looked up): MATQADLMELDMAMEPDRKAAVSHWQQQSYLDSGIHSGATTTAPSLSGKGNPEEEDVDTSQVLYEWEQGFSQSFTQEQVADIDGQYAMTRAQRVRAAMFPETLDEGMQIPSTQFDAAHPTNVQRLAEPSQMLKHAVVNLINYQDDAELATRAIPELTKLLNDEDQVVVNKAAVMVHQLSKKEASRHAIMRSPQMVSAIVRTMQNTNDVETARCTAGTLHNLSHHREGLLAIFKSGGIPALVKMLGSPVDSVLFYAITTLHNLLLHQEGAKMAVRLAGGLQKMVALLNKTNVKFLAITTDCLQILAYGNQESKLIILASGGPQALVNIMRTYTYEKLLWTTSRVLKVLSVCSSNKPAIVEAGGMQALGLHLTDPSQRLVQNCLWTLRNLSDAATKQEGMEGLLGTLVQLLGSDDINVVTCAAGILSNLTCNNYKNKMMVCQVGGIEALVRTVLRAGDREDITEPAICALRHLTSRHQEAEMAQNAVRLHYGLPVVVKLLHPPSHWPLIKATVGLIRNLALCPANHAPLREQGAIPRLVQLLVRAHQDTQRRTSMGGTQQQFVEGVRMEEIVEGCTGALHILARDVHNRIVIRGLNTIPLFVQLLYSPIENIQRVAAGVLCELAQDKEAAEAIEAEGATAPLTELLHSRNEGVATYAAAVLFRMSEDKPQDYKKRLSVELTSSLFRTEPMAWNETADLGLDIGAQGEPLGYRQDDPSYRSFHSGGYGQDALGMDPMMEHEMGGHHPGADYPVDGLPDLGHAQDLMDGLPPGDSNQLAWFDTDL

T3: B-cat-Halo (UniProt P35222 1-781)
T3 sequence (looked up): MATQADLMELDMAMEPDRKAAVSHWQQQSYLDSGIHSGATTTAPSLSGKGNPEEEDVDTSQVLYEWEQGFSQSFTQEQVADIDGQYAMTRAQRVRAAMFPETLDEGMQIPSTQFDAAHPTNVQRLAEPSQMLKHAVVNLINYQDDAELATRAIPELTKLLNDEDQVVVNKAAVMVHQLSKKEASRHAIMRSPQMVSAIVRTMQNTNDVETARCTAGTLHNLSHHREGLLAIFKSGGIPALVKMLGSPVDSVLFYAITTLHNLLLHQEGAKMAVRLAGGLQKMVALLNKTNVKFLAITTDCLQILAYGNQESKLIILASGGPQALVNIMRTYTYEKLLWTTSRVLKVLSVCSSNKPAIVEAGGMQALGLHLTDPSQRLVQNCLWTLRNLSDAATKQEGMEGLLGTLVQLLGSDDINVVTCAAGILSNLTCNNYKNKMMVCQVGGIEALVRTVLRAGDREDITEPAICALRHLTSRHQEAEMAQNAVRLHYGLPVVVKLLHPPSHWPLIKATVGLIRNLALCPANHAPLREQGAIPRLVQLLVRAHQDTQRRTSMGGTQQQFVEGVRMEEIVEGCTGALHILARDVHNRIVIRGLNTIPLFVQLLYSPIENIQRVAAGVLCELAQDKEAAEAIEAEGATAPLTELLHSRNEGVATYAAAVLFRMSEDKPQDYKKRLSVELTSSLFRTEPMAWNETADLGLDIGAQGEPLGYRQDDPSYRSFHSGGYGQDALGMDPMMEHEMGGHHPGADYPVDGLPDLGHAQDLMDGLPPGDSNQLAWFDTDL


Legend:
[1] = target: T1, full-length beta-Catenin (Uniprot ID …); experiment: fluorescence polarization competition: full-length beta-catenin + 5FAM-TCF4(10-53) probe, peptide titrated
Procedure: The plate was incubated protected from light for 60 minutes at 20° C. prior to read. Reads were performed on a CLARIOstar plate reader (BMG Labtech) in duplicate, and data were fitted to a 1:1 binding model with hill slope using an in-house script. All provided concentrations are final concentrations.

B-cat-Halo [2] = target: T2, B-cat-Halo; experiment: cell-based or functional assay
B-cat-Halo [3] = target: T3, B-cat-Halo; experiment: cell-based or functional assay; remark: listed apart in the source

Row | Binder | NanoBRET Abs IC50 (B-cat-Halo [2]) | NanoBRET Abs IC50 (B-cat-Halo [3]) | other results
1 | Ac-[αAllylPro]DA[B5(21)]DEAAFN[PyrS3″]F[Bta]Q-NH2 (staple 1-4, 4-11; also: earlier-eluting HPLC staple isomer, Staple isomer composition: earlier-eluting HPLC peak) [I-463] |  |  | EC50 [1]: 0.092 µM
2 | Ac-[αAllylPro]N[tBuAla][B5(4)]DDAAFL[PyrS2″][3Thi][Bta]Q-NH2 (staple 1-4, 4-11) [I-1221] | 23.4 µM |  | 
3 | Ac-[αAllylPro]D[tBuAla][B5(13)]DDAAFN[PyrS2][Phe(2-OMe)][Bta]Q-NH2 (staple 1-4, 4-11) [I-780] |  | 20.7 µM | 
4 | Ac-[αAllylPro]D[tBuAla][B5(4)]DDAAFL[PyrS2″][Phe(2-Cl)][Bta]Q-NHEt (staple 1-4, 4-11) [I-1248] | 29.7 µM |  | 
5 | Ac-[αAllylPro]D[tBuAla][B5(13)]DDAAFN[PyrS2][2Thi][Bta]Q-NH2 (staple 1-4, 4-11) [I-778] |  | 11.2 µM | 
6 | Ac-[αAllylPro]D[tBuAla][B5(13)]DDAAFN[PyrS2][2Thi][Bta]H-NH2 (staple 1-4, 4-11) [I-779] |  | 18.7 µM | 
7 | Ac-[αAllylPro]D[tBuAla][B5″]NDAAFN[PyrS2(3)][3Thi][Bta]Q-NH2 (staple 1-4, 4-11) [I-1206] | 27.8 µM |  | 
8 | Ac-[αAllylPro]N[tBuAla][B5(4)]DDAAFN[PyrS2″][3Thi][Bta]Q-NH2 (staple 1-4, 4-11) [I-1220] | 17.3 µM |  | 
9 | Ac-[αAllylPro]DA[B5(21)]DEAA[Phe(2-F)]N[S8]F[Bta]Q-NH2 (staple 1-4, 4-11, Stapled (stitched) peptide with non-natural residues) [I-453] |  |  | EC50 [1]: 1.55 µM
10 | mPEG2-[αAllylPro]D[tBuAla][B5(5)]DDAAFN[PyrS2″][Phe(2-Cl)][Bta][dT]-NH2 (staple 1-4, 4-11) [I-1253] | > 20 µM |  | 
11 | Ac-[αAllylPro]D[tBuAla][B5(13)]DDAAFN[PyrS2]F[Bta]H-NH2 (staple 1-4, 4-11) [I-777] |  | 19.8 µM | 
12 | Ac-[αAllylPro]D[tBuAla][B5″]NDAAFL[PyrS2(3)][3Thi][Bta]Q-NH2 (staple 1-4, 4-11) [I-1207] | 7.5 µM |  | 
13 | Ac-[αAllylPro]D[tBuAla][B5(4)]DDAAFL[PyrS2″][Phe(2-Cl)][Bta][Thr(ol)] (staple 1-4, 4-11) [I-1249] | 25.2 µM |  | 
